The text below walks through data of PMC3351461.

For assay [1], the target named is Wnt3a (human (endogenous in H322 and H460)) (UniProt P56704).
Assay [2] shares this target. This is another data set of the same source.

Sequence of UniProt P56704 (P56704 19-352): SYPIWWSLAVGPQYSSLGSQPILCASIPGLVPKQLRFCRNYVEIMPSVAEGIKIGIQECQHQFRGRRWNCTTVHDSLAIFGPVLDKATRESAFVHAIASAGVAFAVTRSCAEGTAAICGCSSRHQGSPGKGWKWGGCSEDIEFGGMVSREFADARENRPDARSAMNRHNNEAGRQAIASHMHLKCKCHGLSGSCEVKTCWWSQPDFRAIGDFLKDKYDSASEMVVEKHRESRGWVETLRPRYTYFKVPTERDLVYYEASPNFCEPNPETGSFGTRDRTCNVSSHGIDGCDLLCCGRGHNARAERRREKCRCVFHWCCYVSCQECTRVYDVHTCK

For “soluble LRP6 receptor (sLRP6E1E2) (domain or fragment)”, in assay [1], the TOPflash luciferase activity in H322 cells with recombinant Wnt3a (100 ng/ml), lower in dE1-k35/sLRP6E1E2-transduced than in dE1-k35/LacZ-transduced cells came to 52%; the TOPflash luciferase activity in H322 cells without added Wnt3a, reduction by dE1-k35/sLRP6E1E2 compared with dE1-k35/LacZ worked out at 12%; the TOPflash luciferase activity in H460 cells with recombinant Wnt3a (100 ng/ml), lower in dE1-k35/sLRP6E1E2-transduced than in dE1-k35/LacZ-transduced cells worked out at 48%; the TOPflash luciferase activity in H460 cells without added Wnt3a, reduction by dE1-k35/sLRP6E1E2 compared with dE1-k35/LacZ turned out to be 48%. The same substance had a nuclear beta-catenin (immunofluorescence, quantified) in H322 cells with Wnt3a, decrease in dE1-k35/sLRP6E1E2-transduced cells compared with dE1-k35/LacZ in assay [2] of 98.1%.
